# Assay: label from the status in PepcDB records
row,Sequence,protein production
1,MKKLKRAYKMEINPTDEQKSKIHQTIGVSRFIYNFYIARNKEIYEKEGKFVSGMDFSKWLNNEYIPNNQEMKWIKEVSSKATKQAIMNGDKSFRDFFKKAKGFPRFKKKKNQDVKAYFPKNNKTDWTIERHRVKIPTLGWVRLKEFGYIPTNSIVKSGTVSQKADRYYVSILVEETDIKISNSNIGIKIFNHNNEGIGIDLGIKDFAICSNGNKFKNINKTSTIKKVEKNLKREQRKLSRKYESLKIRNKKEKGGNVTRQNIQKQIVKVQKLHQRLTNIRTDYINKIVSSIIKQKPSYITIEDLNVKGMMKNKHLSKAIASQKFFEFKTKLMSKCKQNDVELRIVDRFYPSSKTCSQCGEIKKDLKLSDRVYKCSCGLVIDRDLNASINLRNAKEYKIALEHHHHHH,not failed
2,MKKNYMKALVVATTLAIPFATYSTPALAALKVEANQSVAAASDRTYDTEIKIYKDQKDEPSMVSQYIKDPKVTIAAGKKIVTVTMQDSDYFQYLRIEDKNQPGVFHDVKVLSEDKRKNGTKVVQFEIGEFEKKHNMQMHILIPAIGYDHKYQVQFEIKDPTVGNKETEKPDDNSNSGNTETDNPVDNQNMITDNKLRELVNKKVFNRKDLNTPITKEDLLQVKDLFLNTNEILDYSALKYMPNLKSLTVANAKIKDPSFFANLKQLNHLALRGNEFADVTPLVKMDNLESLDLSNNKITNVAPLTEMKNVKSLFLSGNQIEDVTALAKMEQLDYLNLANNKITNVAPLSNLKNVTYLTLAGNQIEDIKPLYTLPLKDLVLTRNKVKDLSGIDQLNQLQELWIGKNEITDVTPLSKMTQLKILNLPNNELKDITPLSSLVNLQKLDLEANYISDLSPVSNLKKLVFLSFVANEIRDVRPVIELSKTAYINVQNQKVFLEETEVNKEVKVPIYEKDGEISTKIRLKSDNGTYSNGVVKWSTPGEKVYEFGVKDPFADTGIFFTGSVIQNVVESKDGNTSKEDEKTEVVEFKDVPKGHWSEEAINYLAKEKLFIGYGNGEFGFGDNITRGQVALLIQRYLKLENNLEQKTAFTDTKGNMYETAIDAVVQAGIMTGYGNGMFRPDGVLTRYEMSVVLQRVFQLKENENSAENFKDVPNGHWAKGYVKALVDNKISKGDGEGNFLGDNFVTREQYAQFLYNAIKK,failed
3,MKKPKFLSLQEDDTFEKMRQSRLQKNKRKRDSGLNVFEEVVKDLTYGYMKIGDGDEIYGKHRKKKRVSKAKELEMAMTLEALKKDQEKGDIVAKNHSWQAAISRAAGIKIHDDPKRLKKRIHKETKMREKNTEKWKERVDVQQKFRAEKQQKRSENVIDRIQQKKMRKIAKREKKLLRPGY,failed
4,MKKPVHDMRQHIIDVARSLMTNKGYTAVGLAEVLITAGVPKGSFYYYFKSKEEFGQALLEEYFSEYLGRVDALMARPGTGAERLLAYFMYWSETQGTDLPEGKCLVVKLGAEVCDLSEDMRCVLEVGTAKIIQRISACVEMGVSDGSIHPEGDHQGFAESLYQLWLGASLLVKVNKSTESFDKALNMTKRLLK,failed
5,MKKRAVLILSMMLAAQAAFYTSSNTASAAIGEAVIATDEINVRSGPGLSHEIVSVVSRNESYPILEERGDWVQIQLNGGQKGWVVSWLIKKKSQVSSGSDSASGKVTSSEANLRIRKGPGTSYEVQGVFPEGEQADLLKTDGKWIKISYQNITGWVYSDYVNQGSGAKQSQSSSSHASSSKSGTVGVSTLNVRSTASHQGRIIATLQRNASVTILNEQHGWYEIEFNGQKGWAASHYILEGNKQNSGTSETSSSSEAKRQATIVYEGTNVRSGPSTSSAIVKRTGKGESYPIVSTKGDWYEIKLSNGDSAYVASWVVQTVDQAGSAGDSKSAAPPLAKRSSSGGTIKNKTVVIDAGHGGHDSGTIGTRGTLEKRLTIKTATLLAAKLRADGVNVYMTRNDDSFVSLQSRVATSHYRNADAFISIHYDSFPNASVRGNTAYYYSPSKDRKLAADVQSEIERHSPLPSRGVLFGDYFVLRENKQPAALFELGYLSHPQEEAVVSTNAYRERVTDGIRSGLENYFD,failed
6,MKKRHLLIAGLACMTILGACNNDDAGSSGQAVVEVDGHEISDAEFVDMLKERYGEAILQELVQRHLISQAADSVEIPQEEIDEELETFKSQIGVETDDEMLDALSNQFGITVENKEEFVNEYILPPLVLEKLAVEGVEITDEEKQAYFDENRDSLIEVEASHILVEDEETAEEVLDRLEAGDDFAELASEYSVDPSAEANNGDLGFFGKGDMVPEFEEAAFNMEIDEVSEPVESTYGYHIILVTDRKDSYEELEEKIHDTLMRERSRTQEEVLRDLLAQADINVLDDQFEGLFDLPDAPPVEDTPEIDGEDASDEAEDQAEDADENAEEEDES,failed
7,MKKRILAVAVTSMLLSASVFAQETVVPSRVGDLKFESDFPTQETMKNMLNEMDFQRATQAYLWGIPASSIMEWLNVSRNDFKFEEGQMGFFNTLKQKQGIITANFTTPYVIGTWNLEKTGPLIINLPEAKMAGMMLDVHQRVLSDLSLLGPDKGKGGKYLIVPPGEKYKDLNPKGYYVIRPKTNVVYGGIRILEPDVDRVVKQVVPNITTQPYADGKLGRKIPVAQVPEIDWTHIPKDGLEYWKTIHQIIQENPVEERDRFVMAQLKFLGIEKGKPFNPTEEQKKILLEASKVGRAMAQSNDYTKRFTQPYWKGTNWKDAISVSLDQRSENYDELDERAAWFYEAITVSRGMKSTIPGFGQRYLVTYQDSDGNWLSGEHTYKLHVPANVPASNFWSTTVYDENNRLMIINDAGSPDISSRKNLKVNSDGSIDVYYGPKPVKGYENNWVQTNPGEGWFTYFRFYGPTEKMFDKSWTMGDIELVKLEHHHHHH,not failed
8,MKKRLLLFILVLGVCLFTSCGNFVKTNIYFSAAESAFDSGKYEDAIKYYDKVIEADSGNAMAYLGKGLALDALGKYEEALEFFDKAIEINKDLAKAYNAKGTTLASLERYEESLENFKKAAELKPKNSAYQNDVAYGLNNLGRFEEAIQYAEKALKLNPRSGVAYSNKGFALDALGKLDEAIECYDKAIELSPTYTNAYYNKSIAVFKMGKTEEAIELLDKVLEIDPDDLDAITSKGYCLNELGKYEKAIECFDTAIEKYPKDPYPYVCKATSLYYLGKYDNALEECNKAIKLEYTFPDSYIWKAKILVEKGDIEEARKSCDEFLAIAEDASVYDMKGQIYLHEYNYPEAIKLFDKAIEVDPSYEDSYINKIYCLYLQKNYKECIEFATKVQTIFPNSADIPWYIGDCYSIMMEPEKAIEYLKKAHELNPKDVGILTSIAWEYYSLEDYAKASEYAEKAAEISADDESVKYIREKLENQKLPEAEQIVEFVKNNYLYYDKIANFEALANEFKAKGEVGVKDICNFIESIRQKDDMFTFVIHGDDYDLLKYEESISQVTSQQLEPNIHYIKIKSFTASVSWEFKEIIDSIENPEEKVLVIDLRDNLGGLATSSADILDYLLPACTTSYIVYRDGYMYSYYSDAAQTKFKKILVLVNEYSASSSEILALGLKKHLNNVVIIGRPTVGKGVGQLVYENKSKKYMIYLVSFYWNVMEENILGKRIEPDVYVNSSSDAAYMNEVKRQAAR,failed
9,MKKRVQNKRFARTICDGNNPSQIATDLRDICEGEKTRRFSVANFARDNSLAILREICEELARTKKFLAKSLQIARDLQVQILFCGNFCDETYKDRDFAGWLKLYVTNGCENELLLLWLYEIVQEPRSKITTAKSFVVDVNANKTYAKFKPFILASQAFYLTRV,not failed
10,MKKSILFTFVLCLLSQWSVAQAPKWVEKAKRSVFSIVTYDKDDKIQNTGNGFFVTEDGVALSDYSLFKGAQRAVIINSEGEKMPVECILGANDMYDIIKFRVGITVKKVPALQVAALAPAVGAEVYLLPYSTQKGGNVTRGKVKKVDNIGGDKYHYYTLDMVLKDKMVSCPVTTADGKVFGVAQKSSGQDTASISYAAGAAFAMSQNISALALSDPALNAIGIKKGLPEDEDQALVYLFIASTQSTPEAYAIALDDFIKTFPNSADGYLRRAGNYVFADKDENHMDKAAADLEHALKVAQKKDDTYYNIAKLIYNYQLSKPETVYKDWTYDQALENVRSAIAIQSLPVYQQLEGDILFAKQDYAGAFASYDKVNQTELASPASFFSAAKAKELSKAAPEEVIALLDSCIARCQTPITSDLAPYLLERAQMYMNVEKYRLALADYDAYFNAVKGSVNDLFYYYREQAAFKAKQFQRALDDIAKAIELNPEDLTYRAEQAVVNLRVGRYEEAEKVLKDALAIDPKYAEGYRLLGICQIQLKQEKAACASFAKAKELGDPNVDELIKKHCK,failed
11,MKKSLTLVLVVVSILIFSQTFKLEKVLGFSDISSLAFKDGYLLLGTGNGEIIVYKDGSYYRAFKVHDNRVNEVTFENGFIVSASDDKTVGVTNLETGEIKLLKGHMKGVSSVAVAGSKILSASFDGTVRVWSFPDGGEISSQKLGPSVVQIAAHENRYVVGLANGLALIRDLSNQSFSIPLKAHPEGIKKIVFSENGQLIATCGGNTVKVWNASNGNLVLQYDHVITVNDVAFLENDSLIFVADDYKAVVLNIQKNEVVKSIDAHNNFVLFVSSDDGSIATYGMDKTVKVWNANLELQYSLYGHQLSVNTVALSSDRKFIVSGSDDREILIWNTEKGIAEHRIKALSGVRKLLTVENNIISCLDSNQLKIYNLENGKLVKRIKVGTTSTMDIALQNDRMAVGFYDGSVALFRYPSFEEIWRKDTEHEMIQTIDMNNKFIAFGVSYSDPKDKIGYVEVLSADTGERVFLLEGHRGNVNAVKFAGDFLVSGGEDGKVILWNLDTGSKVKEIYLNEPVSSLFVDEKELFVGTWNGSIKIFAFPDLTLKTSLKASDQKIGHLIKVGNHLVVPCGDGKIRILVEK,failed
12,MKKTFEKVYHLKLSIKGITPQIWRRIQVPENYTFLDLHKAIQAVMDWEDYHLHEFEMVNPKTGMLDKIGAEGDDFDAFGGPLVSEKKAKLSDYFTLENKEALYTYDFGDNWQVKVRLEKILPRKEGVEYPICTAGKRAAVPEDSGGVWGYEEMLEVLKDSEHEEYEDTVLWLGDDFDPEYFDPKDVSF,not failed
13,MKKVFIPINTKIPVERQFPNRVPIWGNYEFIISTKEPEQEYDYVVVLDDIEYSLRLMCCKQNICLFTGEPPYVKLYPRKYLNQFGHVYTCQSSVLKRDNACLSYPALPWMLYYNFYNDKQKEELLIDYDFLKNRPTLQRKNKICLFTSNKKISKGHIERIKFALKLQEEMPDLIDIYGSGFTNVDYKYEVMVQYKYAIVIENCSYPYYWTEKLADTFLSGCYPIYFGDPHIGDFFSKEEMAVIDIRNFDESKQTIKKIIDNNVYEKQYENICHARDKILDKYNMFSLISSTLDSIPAKLDKEKLLLSPMRLSVFDRIRNRIYRLFYLEHHHHHH,failed
14,MKKVLVGLLAIMVMIIASGYTYYKMNYGGESYYVQILVNGEREETTADDHTPMVIYHYKLDSFNSKGDKKLVKFMASHNLRNQAYLELTYNKHKGVTNWNEVQEKEIPKPALKELQSLENLEHHHHHH,failed
15,MKKVTIVGGNGTVGRVLAGGLAGEGYEVTVLDLKEPDDKQAVRFIRVDATDYNEVVKSIPAQTNALINLLAVKPSGDLLDRQEFAKMTDIFFKATYTILRAAAELGVPKVVFASSNHVTDVYEKGGDSLLGRQINTNDYPQSKSLYGLLKLASENLGYLFSHQLDAKVSVINLRIGTAAENELETLHAKPRSKKTLLSHPDLIGIFKAAIKSGKTYGTYYAVSDNKGRPWSIDSAIRELGYRPQVSASDILDED,failed
16,MKKYILIGLGGAIGAILRCFIRNTKIPVYKGEFPISTLMINLSGAFILAVILITANEIWSFNEEIRLGIATGFVGAYTTFSTMCKETIILMNKNLYFLAFCYVTVSVVFGLLFAYFGALSARKILSRLLKVRKEDEKAS,failed
17,MKKYLDKLQNMPIGISGTCLAFITLSNSWNLKGINYFKPIAIFLAVCMLSLMILRLIRFPKVMYEELKNPVTGTFYPTMGMVVWLVSGFFYPYFPVVCSWLWIAAVIYHYGIVIFYTIIRIKERKFENIMPTCFIVYTGMITGSVASKGMDGVIPQIPQIAHFMLMFGFIFYTILLPLVLYIVFKSEILDDHKLPTVGIICSPAPLGVVGILTIEPNPNPYMLAWLIITGLILLVVVYGYILKLFKEGFKPSYAAFTFPLAIATLSAFKLSTYFTGLGYAKMANLFKFLGDVEIFIATYVIFFMLLNFLNMFFKAISPKLGEYVEEEEELIGGTLYSK,failed

# Reference: a protein production outcome set (Wang et al. 2014)
